Reference: patent publication US20220306744A1 (CRESCENDO BIOLOGICS, published 2022)
Blank lines part the entries; values can stand above or below the binder they belong to.

Assays:
[1] = target: T1, recombinant human PD-1 Fc chimera (human, UniProt Q15116 25-167); experiment: SPR Biacore T200, single cycle kinetics, human PD-1-hu Fc amine coupled to CM5, 1:1 model
T1 construct: Bought protein (R&D 1086-PD in the HTRF assay); also called human PD-1-hu Fc; huPD-1Fc; not shown: human Fc
Method: Binding kinetics of certain humabodies binding to human PD-1-hu Fc were measured by surface plasmon resonance (SPR) technology using Biacore T200 instrument (GE Healthcare). Recombinant human PD-1-hu Fc was immobilized by standard amine coupling to CM5 sensors chip (GE Healthcare) using 0.1 mg/ml solution of antigen in 10 mM sodium acetate at pH 5.5. For the reference flow cell, a blank immobilisation was carried out. Single cycle kinetics assays were used to study the interaction, a five point, three-fold dilution series of each Humabody® VH was made with a top concentration of 30 nM. The binding kinetics were followed by flowing the Humabody® VH over the chip surface in HBS EP+ buffer at a flow rate of 30 μl/min. The contact time for each of the association steps was 180 seconds and the dissociation step was varied between 1200-3600 seconds. The data was fitted to a 1:1 binding model after double reference subtraction using the Biacore T200 Evaluation software.

[2] = target: T1, recombinant human PD-1 Fc chimera; experiment: BLI Octet, human PD-1-hu Fc amine coupled to biosensors, 1:1 model
Method: Binding kinetics for Humabody® 1.1a to human PD-1-hu Fc are shown below. These were measured in real-time bio-layer interferometer based biosensor Octet (ForteBio). Recombinant human PD-1-hu Fc was immobilized by standard amine coupling to amine reactive biosensors in 10 mM sodium acetate at pH 5.0. All the binding studies were performed in HBS-ET Octet kinetics buffer. Biosensors were always washed in Octet kinetics buffer in between different steps. A seven point, two-fold dilution series of each Humabody® VH was made with a top concentration of 30 nM. The contact time for each of the association steps was 300 seconds and the dissociation step was varied between 400-600 seconds. Kinetic association (kₐ) and dissociation (kd) rate constants were determined by processing and fitting the data to a 1:1 binding model using ForteBio Analysis software.

[3] = target: T2, human PD-1 expressed on cells (CHO TREX human PD1 cell line, full-length human PD-1 sequence) (human, UniProt Q15116 21-288); experiment: FMAT: inhibition of human Fc tagged human PD-L1 (400 pM) binding to CHO human PD-1 cells
T2 construct: Also used for human PD-1 on Jurkat reporter cells, on PathHunter cells and on PHA-stimulated human CD4+ T cells; also called CHO human PD1 cells; CHO human PD-1 cells
T2 sequence (Q15116 21-288): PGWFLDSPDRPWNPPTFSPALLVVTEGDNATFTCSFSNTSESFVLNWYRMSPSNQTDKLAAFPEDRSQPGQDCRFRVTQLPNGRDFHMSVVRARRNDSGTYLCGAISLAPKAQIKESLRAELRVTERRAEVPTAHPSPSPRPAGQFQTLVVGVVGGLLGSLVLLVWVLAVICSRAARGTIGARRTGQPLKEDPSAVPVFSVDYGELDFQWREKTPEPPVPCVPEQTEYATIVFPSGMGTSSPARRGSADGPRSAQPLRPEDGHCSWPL
Method: (§1) Purified VH were serially diluted in FMAT assay buffer and tested for binding to CHO human PD-1 cells as described above and for inhibition of human PD-L1/PD-L2 binding to CHO human PD-1 cells. All reagents and serially diluted VH were prepared in FMAT assay buffer. VH, buffer (total binding controls) or excess competitor (non-specific binding control) were incubated with 400 pM human Fc tagged human PD-L1 or 100 pM PDL-2, 4 nM anti human Fc-Alexa Fluor-488 and 2000 per well CHO human PD-1 DRAQ5 stained cells in a 384 well black clear-bottomed assay plates. Plates were incubated for 2 hours at room temperature then fluorescence measured in the FL2 (502 nm-537 nm) and FL5 (677-800 nm) channels on the Mirrorball plate reader (TTP) following excitation at 488 nm and 640 nm. Data was expressed as a % of the total binding control (i.e. % control) after subtraction of the background signal determined from the non-specific binding control wells. The results are shown in FIG. 5 and in Tables 8 and 9 below.

[4] = target: T3, mouse PD-1 protein (R&D Systems cat no. 1021-PD) (mouse, UniProt Q02242 25-167); experiment: HTRF binding assay, 2 nM mouse PD1
T3 construct: Bought protein
T3 sequence (looked up): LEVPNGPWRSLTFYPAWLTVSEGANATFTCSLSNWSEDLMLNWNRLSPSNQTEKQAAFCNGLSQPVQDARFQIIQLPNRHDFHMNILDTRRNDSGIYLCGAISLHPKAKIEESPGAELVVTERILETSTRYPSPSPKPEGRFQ
Method: (§2) Purified VH were tested for their ability to bind to human PD1 (R&D Systems cat no. 1086-PD), cynomolgus PD-1 (Acro Biosystems cat no. PD-1-C5254) and mouse PD1 (R&D Systems cat no. 1021-PD) in an HTRF Binding assay format. All reagents and serially diluted VH were prepared in assay buffer containing PBS, 0.1% BSA and 0.4M Potassium Fluoride. Samples or assay buffer (non-specific binding) were incubated with 2 nM human/cynomolgus or mouse PD1, 1 nM Anti human-Fc Cryptate PAb (Cisbio cat. no. 61HFCKLB) and 30 nM anti His-D2 (CisBio cat no 61HISDLA) in black 384-shallow well assay plates for a minimum of 3 hours at room temperature. Time-resolved fluorescent emission at 620 nm and 665 nm was measured following excitation at 337 nm on the BMG PHERAstar plate reader. The HTRF ratio were calculated ((665 nm emission/620 nm emission)*10000) and the data corrected for (non-specific binding) to give the specific binding signal.

[5] = target: T2, human PD-1 expressed on cells (CHO TREX …); experiment: cell-based or functional assay
[6] = target: T4, Strep tagged recombinant human PD-1 (human, UniProt Q15116 25-167, limits assumed); experiment: SPR Biacore T200, single cycle kinetics, Strep tagged human PD-1 amine coupled, 1:1 model
T4 construct: whole entry named; also called Strep tagged human PD-1; not shown: Strep tag
T4 sequence (Q15116 25-167 limits assumed): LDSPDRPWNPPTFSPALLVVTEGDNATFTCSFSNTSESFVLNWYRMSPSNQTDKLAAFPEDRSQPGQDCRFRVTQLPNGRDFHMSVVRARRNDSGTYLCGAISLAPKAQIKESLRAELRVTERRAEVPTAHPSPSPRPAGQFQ
Method: Single cycle kinetics assays were used to study the interaction between human PD-1 with Humabody VHs on a Biacore T200 instrument (GE Healthcare). Strep tagged recombinant human PD-1 was amine coupled to one flow cell of a CM-5 chip to create a low density surface (14 RU) using standard Biacore reagents. For the reference flow cell, a blank immobilisation was carried out. A five point, three-fold dilution series of each Humabody VH was made with a top concentration of 25 nM. The binding kinetics were followed by flowing the Humabody VH over the chip surface in HBS EP+ buffer at a flow rate of 30 μl/min. The contact time for each of the association steps was 180 seconds and the dissociation step was 3300 seconds. The data was fitted to a 1:1 binding model after double reference subtraction using the Biacore T200 Evaluation software.

[7] = target: T2, human PD-1 expressed on cells (CHO TREX …); experiment: FMAT: inhibition of PDL-2 (100 pM) binding to CHO human PD-1 cells
Method: as §1

[8] = target: T5, cynomolgus PD-1 recombinant protein (Acro Biosystems cat no. PD-1-C5254) (cynomolgus); experiment: HTRF binding assay, 2 nM recombinant PD1, anti His-D2 and anti human-Fc cryptate
T5 construct: Bought protein; also called cyno PD1
Method: as §2

[9] = target: T1, recombinant human PD-1 Fc chimera; experiment: as above
Method: as §2

[10] = target: T1, recombinant human PD-1 Fc chimera; experiment: SPR Biacore T200, single cycle kinetics, human Fc tagged PD-1 captured on Protein G, 1:1 model
Method: Single cycle kinetics assays were used to study the interaction between human Fc tagged human PD-1 with Humabody® VH on a Biacore T200 instrument (GE Healthcare). Protein G was amine coupled to two flow cells of a CM-5 chip. Human Fc tagged recombinant human PD-1 was captured onto one of the flow cells. The other was used as the reference flow cell. A five point, three-fold dilution series of each Humabody® VH was made with a top concentration within the range of 50 to 150 nM. The binding kinetics were followed by flowing the Humabody® VH over the chip surface in HBS EP+ buffer at a flow rate of 30 μl/min. The contact time for each of the association steps was 180 seconds and the dissociation step was 3600 seconds. The data was fitted to a 1:1 binding model after double reference subtraction using the Biacore T200 Evaluation software.

[11] = target: T2, human PD-1 expressed on cells (CHO TREX …); experiment: FMAT: inhibition of human Fc tagged human PD-L1 (400 pM) binding to CHO human PD-1 cells; remark: listed apart in the source
Method: as §1

T1 sequence (Q15116 25-167 limits assumed, stated change not applied): as the sequence (Q15116 25-167 limits assumed) above

Kd [1]: 676 pM
koff [1]: 7.35e-05 s⁻¹
kon [1]: 109000 M⁻¹ s⁻¹
koff [2]: 0.000901 s⁻¹
kon [2]: 459000 M⁻¹ s⁻¹
B1: 1.1a (VHH)
VHH: EVQLLESGGGSVQPGRSLRLSCAASGFTFDDHAMHWVRQAPGKGLEWVSGISWNSGSMGYADSVKDRFTISRDNAKSSLYLQMNSLRAEDTALYYCVREKGPGLTGSTADYYGLDVWGQGTMVTVSS
notes: also called Humabody 1.1a; VH single domain antibody 1.1a

IC50 [3]: 1300 pM
binding result [4]: no binding
EC50 (M), NFAT-Luciferase reporter gene assay [5]: 1.7e-09 M
Kd [6]: 111 pM
koff [6]: 4.86e-05 s⁻¹
kon [6]: 437000 M⁻¹ s⁻¹
IC50 [7]: 1200 pM
EC50 [8]: 2100 pM
EC50 [9]: 1200 pM
Kd [10]: 0.0594 pM
koff [10]: 4.59e-08 s⁻¹
kon [10]: 773000 M⁻¹ s⁻¹
IC50 [11]: 900 pM
B2: 1.57b-4GS-1.1a (other)
chain: QVQLVESGGGLVKPGGSLRLSCAASGFTFSDNSMTWMRQAPGKGLEWVSYISSGGGVIFYADSVKGRFTISRDNAKNSLYLQMNSLRADDTAVYYCAREAPLRLGESPHDAFDISGQGTMVTVSSGGGGSGGGGSGGGGSGGGGSEVQLLESGGGSVQPGRSLRLSCAASGFTFDDHAMHWVRQAPGKGLEWVSGISWNSGSMGYADSVKDRFTISRDNAKSSLYLQMNSLRAEDTALYYCVREKGPGLTGSTADYYGLDVWGQGTMVTVSS
notes: Biparatopic VH-linker-VH

Kd [1]: 28 pM
koff [1]: 6.39e-06 s⁻¹
kon [1]: 228000 M⁻¹ s⁻¹
binding result [4]: no binding
EC50 (M), NFAT-Luciferase reporter gene assay [5]: 1.1e-08 M
EC50 [8]: 920 pM
EC50 [9]: 500 pM
B3: 1.1b-6GS-1.1a (other)
chain: QVQLVESGGGLVKPGGSLRLSCAASGFTFSDYTMTWMRQAPGKGLEWVSYISTGGTIKYYTDSVKGRFTISRDNAKNSLYLQMNSLRADDTAVYYCAREAPLRLGESPHDAFDIWGQGTMVTVSSGGGGSGGGGSGGGGSGGGGSGGGGSGGGGSEVQLLESGGGSVQPGRSLRLSCAASGFTFDDHAMHWVRQAPGKGLEWVSGISWNSGSMGYADSVKDRFTISRDNAKSSLYLQMNSLRAEDTALYYCVREKGPGLTGSTADYYGLDVWGQGTMVTVSS
notes: Biparatopic VH-linker-VH
